Laboratory results taken from patent publication US20230201357, “D-DIMER-SPECIFIC APTAMERS AND METHODS OF USE IN DIAGNOSTICS, THERAPEUTIC AND THERANOSTIC PURPOSES” (APTAMER DIAGNOSTIC, INC., published 2023).

Tests used:
[1] = target: T1, D-dimer (cross-linked fibrin degradation product) (Homo sapiens, UniProt P02671;P02675;P02679 SEQ:1-87,SEQ:1-328,SEQ:1-324); assay: ELONA; 25 nM; settings: tags: none stated; about 180 kDa; chain copies: 2 of each chain (inferred); label: biotin (5' or 3')
Method: (§1) 25 nM of either 3′ Bioitnilated ADI1701, Truncation 1, Truncation 2, Truncation 3, Truncation 4, Truncation 5, scrambled sequence 1, scrambled sequence 2 and scrambled sequence 3 was incubated with D-Dimer protein immobilized on a 96 well ELISA plate. As a control, 3′ Biotin-ADI1701 was incubated with fibrinogen or two plasma samples from donors with low D-Dimer levels (<200 ng/ml) immobilized on the plate. Absorbance was measured after incubation with streptavidin horse radish peroxidase bound to the biotinylated aptamer in the presence of the substrate 3,3′,5,5′-Tetramethylbenzidine (TMB). […] Deleting three or five bases from the 5′ end of ADI1701 decreased the binding to D-dimer by 33%. […] The values shown are subtracted from the absorbance measured in the presence of albumin that was used as the blank.
(§2) Various truncations were made to the 3′ Biotinylated-ADI1701 aptamer from the 5′ and 3′-ends. Deleting as little as 3 bases from the 5′-end or 5 bases from the 3′-end affected the binding of ADI1701 to D-dimer (FIG. 7). Again, none of the scrambled sequences with Biotin label on either the 5′ or 3′-ends presented any binding to D-dimer.

Fibrinogen [2] = target: T2, Fibrinogen (UniProt P02671-2;P02675;P02679-2 P02671-2:20-644,P02675:31-491,P02679-2:27-437); assay: ELONA; 25 nM aptamer, immobilized fibrinogen; low D-dimer plasma also negative; settings: chain copies: 2; label: 3' biotin
T2 sequence (P02671 other isoform, or with tags, fused parts or gaps, chain 1 of 3): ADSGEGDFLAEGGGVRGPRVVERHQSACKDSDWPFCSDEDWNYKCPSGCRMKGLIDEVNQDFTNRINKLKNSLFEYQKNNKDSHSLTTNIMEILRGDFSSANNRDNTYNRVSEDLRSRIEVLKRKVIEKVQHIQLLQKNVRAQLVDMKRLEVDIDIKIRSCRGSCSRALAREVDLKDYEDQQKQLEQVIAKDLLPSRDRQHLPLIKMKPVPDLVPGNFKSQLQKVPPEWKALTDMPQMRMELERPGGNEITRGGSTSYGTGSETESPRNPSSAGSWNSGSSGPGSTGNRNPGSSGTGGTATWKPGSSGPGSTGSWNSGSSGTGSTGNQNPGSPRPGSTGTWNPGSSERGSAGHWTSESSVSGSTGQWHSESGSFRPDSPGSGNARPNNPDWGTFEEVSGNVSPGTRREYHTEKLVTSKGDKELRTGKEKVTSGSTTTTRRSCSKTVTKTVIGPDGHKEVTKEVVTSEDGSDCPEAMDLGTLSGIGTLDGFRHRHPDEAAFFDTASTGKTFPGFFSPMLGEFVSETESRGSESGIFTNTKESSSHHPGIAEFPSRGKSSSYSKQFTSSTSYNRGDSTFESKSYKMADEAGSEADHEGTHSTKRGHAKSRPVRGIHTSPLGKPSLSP
T2 sequence (P02675 31-491, chain 2 of 3): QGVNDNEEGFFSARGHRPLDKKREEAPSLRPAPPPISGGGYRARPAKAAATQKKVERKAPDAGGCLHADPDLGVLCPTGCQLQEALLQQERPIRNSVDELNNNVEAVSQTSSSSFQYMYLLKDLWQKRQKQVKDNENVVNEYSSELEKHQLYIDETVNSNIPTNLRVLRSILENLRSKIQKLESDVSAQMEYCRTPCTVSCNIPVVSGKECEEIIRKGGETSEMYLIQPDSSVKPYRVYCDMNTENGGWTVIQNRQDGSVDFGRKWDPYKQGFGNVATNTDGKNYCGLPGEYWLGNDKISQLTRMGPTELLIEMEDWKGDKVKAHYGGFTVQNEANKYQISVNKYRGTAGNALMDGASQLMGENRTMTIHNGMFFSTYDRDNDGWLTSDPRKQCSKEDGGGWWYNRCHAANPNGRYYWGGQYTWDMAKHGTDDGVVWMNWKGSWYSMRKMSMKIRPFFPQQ
T2 sequence (P02679 other isoform, or with tags, fused parts or gaps, chain 3 of 3): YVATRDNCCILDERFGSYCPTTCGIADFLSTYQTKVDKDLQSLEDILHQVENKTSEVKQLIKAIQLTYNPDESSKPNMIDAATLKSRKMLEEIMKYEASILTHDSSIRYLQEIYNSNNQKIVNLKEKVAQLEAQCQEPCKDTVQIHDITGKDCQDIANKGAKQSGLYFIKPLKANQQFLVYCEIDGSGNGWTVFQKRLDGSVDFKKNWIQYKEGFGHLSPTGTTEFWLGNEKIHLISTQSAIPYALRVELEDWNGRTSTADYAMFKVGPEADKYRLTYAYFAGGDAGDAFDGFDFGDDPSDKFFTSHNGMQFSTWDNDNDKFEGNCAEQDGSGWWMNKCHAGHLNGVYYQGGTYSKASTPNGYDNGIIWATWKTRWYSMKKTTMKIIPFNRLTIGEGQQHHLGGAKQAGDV
Method: as §1, §2

[3] = target: T1, D-dimer (cross-linked fibrin …); assay: SPR; SPRi, biotinylated aptamer on streptavidin gold, 10 nM D-dimer in flow; ka 2.0e6, kd 0.0048 per s; settings: tags: none stated; about 180 kDa; chain copies: 2 of each chain (inferred); label: 3' biotin
Method: Interaction between ADI1701 and D-dimer was analyzed by a SPR device, Openplex SPRi system from Horiba Scientific. Various amounts of ADI1701 (5 fmol, 50 fmmol and 500 fmol) were immobilized on a gold sensor chip, and D-dimer (10 nM) was injected to the flow cell, and ScrubberGen Ver. 2.0g software was used to subtract the references. […] Nonspecific binding of D-dimer to ADI1701scram was subtracted at the respective concentrations.
Further studies on the specificity and affinity of binding of ADI1701 to D-dimer were performed using Surface plasmon resonance (SPR). SPR has become an important optical bio-sensing technology in the areas of biochemistry, biology, and medical sciences because of its real-time, label-free, and noninvasive nature. Various amounts of biotinylated ADI1701 were immobilized on streptavidin coated gold surface and D-dimer to flow through. It is shown herein that ADI1701 binds directly to D-Dimer (FIG. 8).

[4] = target: T1, D-dimer (cross-linked fibrin …); assay: ELONA; estimated from saturation curve; text says 5' biotin, FIG. 6 legend says 3' biotin; settings: tags: none stated; about 180 kDa; chain copies: 2 of each chain (inferred); label: 5' biotin
Bovine serum albumin = Bovine serum albumin (Bos taurus, UniProt P02769 P02769:25-607); assay: latex bead agglutination, no agglutination at highest BSA amount
Chain of Bovine serum albumin (P02769 25-607, one chain of several): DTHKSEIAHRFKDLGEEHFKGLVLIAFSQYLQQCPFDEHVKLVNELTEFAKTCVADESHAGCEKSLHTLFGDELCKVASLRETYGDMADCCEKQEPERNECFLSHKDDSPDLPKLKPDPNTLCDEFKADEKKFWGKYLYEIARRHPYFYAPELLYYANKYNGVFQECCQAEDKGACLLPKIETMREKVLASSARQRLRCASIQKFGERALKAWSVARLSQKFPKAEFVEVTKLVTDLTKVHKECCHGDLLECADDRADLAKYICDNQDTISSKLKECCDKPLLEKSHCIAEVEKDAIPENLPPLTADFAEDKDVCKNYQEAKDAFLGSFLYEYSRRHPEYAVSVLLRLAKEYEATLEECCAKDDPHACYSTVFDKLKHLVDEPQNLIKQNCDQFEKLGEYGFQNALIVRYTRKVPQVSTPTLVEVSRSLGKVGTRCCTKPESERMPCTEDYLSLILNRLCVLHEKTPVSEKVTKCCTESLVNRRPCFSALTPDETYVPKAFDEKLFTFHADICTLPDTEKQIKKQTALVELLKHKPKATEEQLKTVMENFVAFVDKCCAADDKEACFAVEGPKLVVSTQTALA
Method: (§3) FIGS. 10A and 10B show photomicrographs of Latex-Aptamer Beads at Different Preparations and at Two Extreme Levels of D-Dimer Concentration. […] The well concentration of the proteins are (serial dilution from left to right, per 150 uL total well volume): 10 nM, 5 nM, 2.5 nM and 1.25 nM of D-Dimer; 10 nM, 5 nM, 2.5 nM and 1.25 nM of Fibrinogen; 750 nM, 375 nM, 188 nM and 94 nM of the BSA. (Ref: NB3, p 19-20, Aug. 29, 2017). 50 ul of aptamer conjugated to the latex beads were added to each well.
(§4) FIG. 10 represents an image of the wells section of a 96-well plate with the initial testing of coagulation.

[5] = target: T1, D-dimer (cross-linked fibrin …); assay: latex bead agglutination; seen at lower concentration than with fibrinogen; settings: tags: none stated; about 180 kDa; chain copies: 2 of each chain (inferred)
Method: as §3, §4

Fibrinogen [6] = target: T2, Fibrinogen; assay: EMSA; native PAGE, no band overlapping fibrinogen; settings: chain copies: 2

T1 sequence (P02671 130-216, chain 1 of 3): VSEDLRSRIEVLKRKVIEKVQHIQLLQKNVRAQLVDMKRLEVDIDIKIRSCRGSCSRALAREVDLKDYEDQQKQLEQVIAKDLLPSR
T1 sequence (P02675 164-491, chain 2 of 3): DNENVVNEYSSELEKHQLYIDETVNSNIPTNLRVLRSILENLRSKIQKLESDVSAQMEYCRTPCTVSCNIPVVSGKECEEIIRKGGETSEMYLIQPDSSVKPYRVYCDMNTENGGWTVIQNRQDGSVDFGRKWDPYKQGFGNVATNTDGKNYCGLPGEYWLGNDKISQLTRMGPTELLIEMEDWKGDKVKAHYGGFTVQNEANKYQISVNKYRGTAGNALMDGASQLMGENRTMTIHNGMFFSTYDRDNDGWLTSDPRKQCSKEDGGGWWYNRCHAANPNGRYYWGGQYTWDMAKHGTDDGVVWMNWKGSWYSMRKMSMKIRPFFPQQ
T1 sequence (P02679 other isoform, or with tags, fused parts or gaps, chain 3 of 3): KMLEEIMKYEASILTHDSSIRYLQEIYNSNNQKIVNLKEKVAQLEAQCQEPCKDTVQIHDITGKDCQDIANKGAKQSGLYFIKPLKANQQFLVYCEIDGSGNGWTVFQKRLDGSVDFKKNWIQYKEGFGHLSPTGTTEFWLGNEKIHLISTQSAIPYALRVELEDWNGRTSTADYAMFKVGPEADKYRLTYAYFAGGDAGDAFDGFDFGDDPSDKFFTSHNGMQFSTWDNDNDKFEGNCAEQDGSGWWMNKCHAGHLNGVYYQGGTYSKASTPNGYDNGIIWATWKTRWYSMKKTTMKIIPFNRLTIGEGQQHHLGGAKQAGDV

Question: Does ACTACCGATGCGGACTTATCCGCACGTACCGCTATTGTAG (ssDNA) [Scrambled Sequence 2] bind [1]?
Answer: no binding

Question: Which results are given for GCGCGGTCCCGATTTGGTGTAAAATTCCCTCAGCCCTACA (ssDNA) [3'Biotin-ADI1701]?
Answer: binding result (Fibrinogen [2]): no binding; Kd [3]: 2.5 nM

Question: GCGCGGTCCCGATTTGGTGTAAAATTCCCTCAGCCCTACA (ssDNA) [5'Biotin-ADI1701] was tested. Which Kd [4] did it give?
Answer: ~10 nM

Question: What does the source list for GCGCGGTCCCGATTTGGTGTAAAATTCCCTCAGCCCTACA (ssDNA, NH2-C6 linker, latex conjugate) [ADI1701-latex (NH2-C6-ADI1701 coupled to beads)]?
Answer: binding result (Bovine serum albumin): no binding; binding result [5]: binds

Question: Does GCGCGGTCCCGATTTGGTGTAAAATTCCCTCAGCCCTACA (ssDNA) [ADI1701] bind (Fibrinogen [6])?
Answer: no binding

Question: Does TTGTTAGATACTCGCTCTCATCCGCCGTACAACTGGCCAG (ssDNA) [Scrambled Sequence 1] bind [1]?
Answer: no binding
